Changes are numbered by the printed parent chain.
B1: H183/L072 VL N30P (antibody, name in Kabat numbering, V domains shown)
VH: QVQLVESGGGLVQPGRSLRLSCAASGFTFSNAWMHWVRQAPGKGLEWVAQIKDKGNAYAAYYAPSVKGRFTISRDDSKNSIYLQMNSLKTEDTAVYYCHYVHYASASTVLPAFGVDAWGQGTTVTVSS
VL: DIVMTQSPLSLPVTPGEPASISCQASQELVHMNRPTYLHWYQQKPGQAPRLLIYKVSNRFPGVPDRFSGSGSGTDFTLKISRVEAEDVGVYYCAQGTSVPFTFGQGTKLEIK
notes: Dual-Ig
B2: H183/L072 VL P56R (antibody, name in Kabat numbering, V domains shown)
VH: B1 VH
VL: B1 VL with P35N, P61R
notes: Dual-Ig
B3: H183/L072 VL P56V (antibody, name in Kabat numbering, V domains shown)
VH: B1 VH
VL: B1 VL with P35N, P61V
notes: Dual-Ig
B4: H183/L072 VL N30W (antibody, name in Kabat numbering, V domains shown)
VH: B1 VH
VL: B1 VL with P35W
notes: Dual-Ig
B5: H183/L072 VL P95D (antibody, name in Kabat numbering, V domains shown)
VH: B1 VH
VL: B1 VL with P35N, P100D
notes: Dual-Ig
B6: H183/L072 VL N30S (antibody, name in Kabat numbering, V domains shown)
VH: B1 VH
VL: B1 VL with P35S
notes: Dual-Ig
B7: H183/L072 VL N30T (antibody, name in Kabat numbering, V domains shown)
VH: B1 VH
VL: B1 VL with P35T
notes: Dual-Ig
B8: H183/L072 VL N53E (antibody, name in Kabat numbering, V domains shown)
VH: B1 VH
VL: B1 VL with P35N, N58E
notes: Dual-Ig
B9: H183/L072 VL P56Q (antibody, name in Kabat numbering, V domains shown)
VH: B1 VH
VL: B1 VL with P35N, P61Q
notes: Dual-Ig
B10: H183/L072 VL N53S (antibody, name in Kabat numbering, V domains shown)
VH: B1 VH
VL: B1 VL with P35N, N58S
notes: Dual-Ig
B11: H183/L072 VL N53A (antibody, name in Kabat numbering, V domains shown)
VH: B1 VH
VL: B1 VL with P35N, N58A
notes: Dual-Ig
B12: H183/L072 VL P56A (antibody, name in Kabat numbering, V domains shown)
VH: B1 VH
VL: B1 VL with P35N, P61A
notes: Dual-Ig
B13: H183/L072 VL N53F (antibody, name in Kabat numbering, V domains shown)
VH: B1 VH
VL: B1 VL with P35N, N58F
notes: Dual-Ig
B14: H183/L072 VL P56H (antibody, name in Kabat numbering, V domains shown)
VH: B1 VH
VL: B1 VL with P35N, P61H
notes: Dual-Ig
B15: H183/L072 VL P56W (antibody, name in Kabat numbering, V domains shown)
VH: B1 VH
VL: B1 VL with P35N, P61W
notes: Dual-Ig
B16: H183/L072 VL P56I (antibody, name in Kabat numbering, V domains shown)
VH: B1 VH
VL: B1 VL with P35N, P61I
notes: Dual-Ig
B17: H183/L072 VL P56L (antibody, name in Kabat numbering, V domains shown)
VH: B1 VH
VL: B1 VL with P35N, P61L
notes: Dual-Ig
B18: H183/L072 VL P95E (antibody, name in Kabat numbering, V domains shown)
VH: B1 VH
VL: B1 VL with P35N, P100E
notes: Dual-Ig
B19: H183/L072 VL N53L (antibody, name in Kabat numbering, V domains shown)
VH: B1 VH
VL: B1 VL with P35N, N58L
notes: Dual-Ig
B20: H183/L072 VL N53G (antibody, name in Kabat numbering, V domains shown)
VH: B1 VH
VL: B1 VL with P35N, N58G
notes: Dual-Ig
B21: H183/L072 VL N30R (antibody, name in Kabat numbering, V domains shown)
VH: B1 VH
VL: B1 VL with P35R
notes: Dual-Ig
B22: H183/L072 VL N30Q (antibody, name in Kabat numbering, V domains shown)
VH: B1 VH
VL: B1 VL with P35Q
notes: Dual-Ig
B23: H183/L072 VL N53W (antibody, name in Kabat numbering, V domains shown)
VH: B1 VH
VL: B1 VL with P35N, N58W
notes: Dual-Ig
B24: H183/L072 VL N53P (antibody, name in Kabat numbering, V domains shown)
VH: B1 VH
VL: B1 VL with P35N, N58P
notes: Dual-Ig
B25: H183/L072 VL P56E (antibody, name in Kabat numbering, V domains shown)
VH: B1 VH
VL: B1 VL with P35N, P61E
notes: Dual-Ig
B26: H183/L072 VL N30Y (antibody, name in Kabat numbering, V domains shown)
VH: B1 VH
VL: B1 VL with P35Y
notes: Dual-Ig
B27: H183/L072 VL N53R (antibody, name in Kabat numbering, V domains shown)
VH: B1 VH
VL: B1 VL with P35N, N58R
notes: Dual-Ig
B28: H183/L072 VL P56T (antibody, name in Kabat numbering, V domains shown)
VH: B1 VH
VL: B1 VL with P35N, P61T
notes: Dual-Ig
B29: H183/L072 VL N53H (antibody, name in Kabat numbering, V domains shown)
VH: B1 VH
VL: B1 VL with P35N, N58H
notes: Dual-Ig
B30: H183/L072 VL P56D (antibody, name in Kabat numbering, V domains shown)
VH: B1 VH
VL: B1 VL with P35N, P61D
notes: Dual-Ig
B31: H183/L072 VL N53K (antibody, name in Kabat numbering, V domains shown)
VH: B1 VH
VL: B1 VL with P35N, N58K
notes: Dual-Ig
B32: H183/L072 VL P56S (antibody, name in Kabat numbering, V domains shown)
VH: B1 VH
VL: B1 VL with P35N, P61S
notes: Dual-Ig
B33: H183/L072 VL N53T (antibody, name in Kabat numbering, V domains shown)
VH: B1 VH
VL: B1 VL with P35N, N58T
notes: Dual-Ig
B34: H183/L072 VL N53Q (antibody, name in Kabat numbering, V domains shown)
VH: B1 VH
VL: B1 VL with P35N, N58Q
notes: Dual-Ig
B35: H183/L072 VL P56N (antibody, name in Kabat numbering, V domains shown)
VH: B1 VH
VL: B1 VL with P35N, P61N
notes: Dual-Ig
B36: H183/L072 VL P56G (antibody, name in Kabat numbering, V domains shown)
VH: B1 VH
VL: B1 VL with P35N, P61G
notes: Dual-Ig
B37: H183/L072 VL P56K (antibody, name in Kabat numbering, V domains shown)
VH: B1 VH
VL: B1 VL with P35N, P61K
notes: Dual-Ig
B38: H183/L072 VL N53D (antibody, name in Kabat numbering, V domains shown)
VH: B1 VH
VL: B1 VL with P35N, N58D
notes: Dual-Ig
B39: H183/L072 VL P56M (antibody, name in Kabat numbering, V domains shown)
VH: B1 VH
VL: B1 VL with P35N, P61M
notes: Dual-Ig
B40: H183/L072 VL N53I (antibody, name in Kabat numbering, V domains shown)
VH: B1 VH
VL: B1 VL with P35N, N58I
notes: Dual-Ig
B41: H183/L072 VL N30V (antibody, name in Kabat numbering, V domains shown)
VH: B1 VH
VL: B1 VL with P35V
notes: Dual-Ig
B42: H183/L072 VL P95A (antibody, name in Kabat numbering, V domains shown)
VH: B1 VH
VL: B1 VL with P35N, P100A
notes: Dual-Ig
B43: H183/L072 VL P56F (antibody, name in Kabat numbering, V domains shown)
VH: B1 VH
VL: B1 VL with P35N, P61F
notes: Dual-Ig
B44: H183/L072 VL N53M (antibody, name in Kabat numbering, V domains shown)
VH: B1 VH
VL: B1 VL with P35N, N58M
notes: Dual-Ig
B45: H183/L072 VL P95F (antibody, name in Kabat numbering, V domains shown)
VH: B1 VH
VL: B1 VL with P35N, P100F
notes: Dual-Ig
B46: H183/L072 VL N53V (antibody, name in Kabat numbering, V domains shown)
VH: B1 VH
VL: B1 VL with P35N, N58V
notes: Dual-Ig

These binders were tested against T1, Human CD137 ECD (human) (assay: Biacore SPR, vs parent H183/L072).
T1 construct: entry includes C-terminal His-tag and biotin acceptor peptide; also called human CD137 extracellular domain; 4-1BB
T1 sequence (chain, as listed by the source limits assumed): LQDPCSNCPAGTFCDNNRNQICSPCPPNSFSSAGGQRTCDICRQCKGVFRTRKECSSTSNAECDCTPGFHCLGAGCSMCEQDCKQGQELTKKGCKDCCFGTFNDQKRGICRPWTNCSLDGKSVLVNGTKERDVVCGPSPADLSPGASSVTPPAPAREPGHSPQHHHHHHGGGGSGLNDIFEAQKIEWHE

| Binder | fold change of affinity |
| --- | --- |
| B1 | 0.4 fold |
| B2 | 0 fold |
| B3 | 0 fold |
| B4 | 0.9 fold |
| B5 | 0 fold |
| B6 | 0.2 fold |
| B7 | 0.3 fold |
| B8 | 0.2 fold |
| B9 | 0.2 fold |
| B10 | 0.5 fold |
| B11 | 0.7 fold |
| B12 | 0.1 fold |
| B13 | 0.3 fold |
| B14 | 0 fold |
| B15 | 0 fold |
| B16 | 0.1 fold |
| B17 | 0.1 fold |
| B18 | 0 fold |
| B19 | 0.2 fold |
| B20 | 0.6 fold |
| B21 | 0.5 fold |
| B22 | 1 fold |
| B23 | 0 fold |

| Binder | fold change of affinity |
| --- | --- |
| B24 | 0 fold |
| B25 | 0.1 fold |
| B26 | 0.6 fold |
| B27 | 0.3 fold |
| B28 | 0.2 fold |
| B29 | 0.5 fold |
| B30 | 0.2 fold |
| B31 | 0.2 fold |
| B32 | 0.1 fold |
| B33 | 0 fold |
| B34 | 0.4 fold |
| B35 | 0.2 fold |
| B36 | 0.1 fold |
| B37 | 0 fold |
| B38 | 0.3 fold |
| B39 | 0.2 fold |
| B40 | 0.2 fold |
| B41 | 0.7 fold |
| B42 | 0 fold |
| B43 | 0 fold |
| B44 | 0.1 fold |
| B45 | 0 fold |
| B46 | 0.5 fold |

Source: patent publication US20210388087A1 (Chugai, published 2021)
